Data reported in US20210388097A1 (SORRENTO THERAPEUTICS, published 2021).

Columns and labels:
[1] = target: T1, human TACI/TNFRSF13B (CD267) His-tag, from Sino Biological (human, UniProt O14836 1-166, limits assumed); assay: bio-layer interferometry, antibody coupled to AR2G sensor, TACI in solution
T1 construct: Bought protein; not shown: His-tag
T1 sequence (looked up): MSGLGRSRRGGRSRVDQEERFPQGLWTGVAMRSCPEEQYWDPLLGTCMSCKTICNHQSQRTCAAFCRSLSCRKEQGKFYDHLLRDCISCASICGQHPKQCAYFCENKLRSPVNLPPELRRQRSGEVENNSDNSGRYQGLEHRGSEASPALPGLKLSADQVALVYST
Protocol: Bio-layer interferometry was used to measure cross-binding between (1) two different anti-BCMA antibodies (BCA7-2C5 or BB C11D5) or a control isotype, and (2) various human antigens including TACI and BAFFR.
Immobilization of antibody was achieved through standard EDC-catalyzed amide bond formation to create a covalent bond between a reactive amine on the protein and the carboxy-terminated biosensor surface. Briefly, AR2G sensors (OctetRED96e from ForteBio) were activated by EDC-NHS for 6 minutes, then 5 ug/ml antibodies were loaded (BCA7-2C5 antibody, Bluebird C11D5 chimeric antibody, or a human IgG isotype antibody) in 10 mM acetate buffer pH 5.0 for 6 minutes, followed by quenching for 6 minutes with 1M ethanolamine pH 8.5. The 3 minutes baseline step removed any unbound antibody from the biosensor, followed by 1.5 minutes each for association of three analyte proteins TACI (human TACI/TNFRSF13B (CD267) His-tag, from Sino Biological, 1 ug/mL in PBS), BAFFR (human BAFFR/TNFRSF13C (CD268) Fc tag) from Sino Biological, 2 ug/mL in PBS), and human BCMA protein (in-house made with mouse Fc, 2 ug/mL in PBS).

[2] = target: T2, his-tagged human BCMA protein (ACROBiosystems, catalog # BCA-H522y-100 ug) (human, UniProt Q02223 1-54); assay: SPR (Biacore T200), antibody captured on anti-human Fc, his-tagged human BCMA as analyte; fit with ka1/kd1/ka2/kd2 (model not named)
T2 construct: limits of the bought construct are not otherwise stated; also called recombinant his-tagged human BCMA; not shown: his tag of the bought protein
T2 sequence: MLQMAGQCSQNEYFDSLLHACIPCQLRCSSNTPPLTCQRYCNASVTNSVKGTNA
Protocol: Binding kinetics of anti-BCMA antibodies with his-tagged human BCMA protein (ACROBiosystems, catalog # BCA-H522y-100 ug, UniProt Q02223-1, SEQ ID NO:92) was measured using surface plasmon resonance (SPR). Kinetic interactions between the antibodies and his-tagged BCMA proteins were measured at 25° C. using Biacore T200 surface plasmon resonance (GE Healthcare). Anti-human fragment crystallizable region (Fc region) antibody was immobilized on a CM5 sensor chip to approximately 8000 resonance units (RU) using standard N-hydroxysuccinimide/N-Ethyl-N′-(3-dimethylaminopropyl) carbodiimide hydrochloride (NHS/EDC) coupling methodology. The anti-BCMA antibody (2 μg/mL) was captured for 60 seconds at a flow rate of 10 μL/minute. The his-tagged BCMA protein was run at […] different dilutions of 3.12, 6.25, 12.5, 25, 50, 100 and 200 nM, in a running buffer of 0.01 M HEPES pH 7.4, 0.15 M NaCl, 3 mM EDTA, 0.05% v/v Surfactant P20 (HBS-EP+). The 25 nM BCMA protein run was measured two times. All measurements were conducted in HBS-EP+ buffer with a flow rate of 30 μL/minute. […] The SPR sensorgrams of anti-BCMA antibodies BCA7, GSK J6M0, BC4C9 and BC5C4 are shown in FIGS. 1, 2, 3 and 4, respectively, and their corresponding binding kinetics are listed in Table 3.
Binding kinetics of optimized anti-BCMA antibodies BCA7-2C5, BCA7-2D11, BCA7-2G2, BCA7-2E1, BCA7-2D8 and BCA7-2E8, with his-tagged human BCMA protein (ACROBiosystems, catalog # BCA-H522y-100 ug), were analyzed in the manner as described above.

[3] = target: T3, his-tagged cynomolgus BCMA protein (ACROBiosystems, catalog # BCA-052H7) (cynomolgus, UniProt A0A2K5UD97 1-53); assay: SPR (Biacore T200), antibody captured on anti-human Fc chip, his-tagged cynomolgus BCMA as analyte
T3 construct: Bought protein; also called cyno BCMA; not shown: his tag
Protocol: Binding kinetics of anti-BCMA antibodies with his-tagged human BCMA protein (ACROBiosystems, catalog # BCA-H522y-100 ug, UniProt Q02223-1, SEQ ID NO:92) was measured using surface plasmon resonance (SPR). Kinetic interactions between the antibodies and his-tagged BCMA proteins were measured at 25° C. using Biacore T200 surface plasmon resonance (GE Healthcare). Anti-human fragment crystallizable region (Fc region) antibody was immobilized on a CM5 sensor chip to approximately 8000 resonance units (RU) using standard N-hydroxysuccinimide/N-Ethyl-N′-(3-dimethylaminopropyl) carbodiimide hydrochloride (NHS/EDC) coupling methodology. The anti-BCMA antibody (2 μg/mL) was captured for 60 seconds at a flow rate of 10 μL/minute. The his-tagged BCMA protein was run at […] different dilutions of 3.12, 6.25, 12.5, 25, 50, 100 and 200 nM, in a running buffer of 0.01 M HEPES pH 7.4, 0.15 M NaCl, 3 mM EDTA, 0.05% v/v Surfactant P20 (HBS-EP+). The 25 nM BCMA protein run was measured two times. All measurements were conducted in HBS-EP+ buffer with a flow rate of 30 μL/minute. A 1:1 (Langmuir) binding model was used to fit the data. […]
Cross reactivity of two of the anti-BCMA antibodies, BCA7-2C5 and BCA7-2E1, with his-tagged human, cynomolgus or mouse BCMA protein were analyzed by SPR in the manner as described above. […]

T3 sequence (A0A2K5UD97 entry or part of it): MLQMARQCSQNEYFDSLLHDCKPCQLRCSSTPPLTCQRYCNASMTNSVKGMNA

B1: BCA7-2C5 antibody (antibody, V domains shown)
VH: EVQLVESGGGLVKPGGSLRLSCAASGFTSSTAWMSWVRQAPGKGLEWVGRIKSKSDGGTTDYAAPVKGRFTISRDDSKNTLFLQMNSLKTEDTAVYYCAKGGGTYGYWGQGTTVTVSS
VL: QSALTQPASVSGSPGQSVTISCTGTSSAHGGHYYVSWYQQHPGKAPKLMIYDVSNRPSGVSNRFSGSKSGNTASLTISGLQAEDEADYYCGSYTSSGSYVFGTGTKLTVL
binding result [1]: no binding (tested: 1 ug/mL) | Kd [2]: 19.4 nM | ka1 [2]: 1.37e+06 M⁻¹ s⁻¹ | ka2 [2]: 0.000847 s⁻¹ | kd1 [2]: 0.0422 s⁻¹ | kd2 [2]: 0.00145 s⁻¹ | Kd [3]: 57 nM
